The values that follow come from US20230314420A1 (Genentech, published 2023).

B2: Trastuzumab coat reagent: recombinant HER2 extracellular domains I, III, IV fused to a murine Fc; domain II is replaced by structurally related domain II of … (Fc fusion)
chain: KYALADASLKMADPNRFRGKDLPVLDQLLEAASTQVCTGTDMKLRLPASPETHLDMLRHLYQGCQVVQGNLELTYLPTNASLSFLQDIQEVQGYVLIAHNQVRQVPLQRLRIVRGTQLFEDNYALAVLDNGDPLNNTTPVTGASPGGLRELQLRSLTEILKGGVLIQRNPQLCYQDTILWKDIFHKNNQLALTLIDTNRSRACHPCSPMCKGSRCWGESSEDCQKLTKIICAQQCSGRCRGKSPSDCCHNQCAAGCTGPRESDCLVCRKFRDEATCKDTCPPLMLYNPTTYQMDVNPEGKYSFGATCVKKCPRNYVVTDHGSCVRACGADSYEMEEDGVRKCKKCEGPCRKVCYGLGMEHLREVRAVTSANIQEFAGCKKIFGSLAFLPESFDGDPASNTAPLQPEQLQVFETLEEITGYLYISAWPDSLPDLSVFQNLQVIRGRILHNGAYSLTLQGLGISWLGLRSLRELGSGLALIHHNTHLCFVHTVPWDQLFRNPHQALLHTANRPEDECVGEGLACHQLCARGHCWGPGPTQCVNCSQFLRGQECVEECRVLQGLPREYVNARHCLPCHPECQPQNGSVTCFGPEADQCVACAHYKDPPFCVARCPSGVKPDLSYMPIWKFPDEEGACQPCPINCTHSCVDLDDKGCPAEQRRAQVTDKKIEPRGPTIKPCPPCKCPAPNLLGGPSVFIFPPKIKDVLMISLSPIVTCVVVDVSEDDPDVQISWFVNNVEVHTAQTQTHREDYNSTLRVVSALPIQHQDWMSGKEFKCKVNNKDLPAPIERTISKPKGSVRAPQVYVLPPPEEEMTKKQVTLTCMVTDFMPEDIYVEWTNNGKTELNYKNTEPVLDSDGSYFMYSKLRVEKKNWVERNSYSCSVVHEGLHNHHTTKSFSRTPGK
notes: also called T-HER2 variant; capture reagent of the trastuzumab ELISA
B3: Pertuzumab coat reagent: recombinant HER2 extracellular domains I, II, III fused to a murine Fc; domain IV (containing the trastuzumab epitope) is depleted (Fc fusion)
chain: KYALADASLKMADPNRFRGKDLPVLDQLLESTQVCTGTDMKLRLPASPETHLDMLRHLYQGCQVVQGNLELTYLPTNASLSFLQDIQEVQGYVLIAHNQVRQVPLQRLRIVRGTQLFEDNYALAVLDNGDPLNNTTPVTGASPGGLRELQLRSLTEILKGGVLIQRNPQLCYQDTILWKDIFHKNNQLALTLIDTNRSRACHPCSPMCKGSRCWGESSEDCQSLTRTVCAGGCARCKGPLPTDCCHEQCAAGCTGPKHSDCLACLHFNHSGICELHCPALVTYNTDTFESMPNPEGRYTFGASCVTACPYNYLSTDVGSCTLVCPLHNQEVTAEDGTQRCEKCSKPCARVCYGLGMEHLREVRAVTSANIQEFAGCKKIFGSLAFLPESFDGDPASNTAPLQPEQLQVFETLEEITGYLYISAWPDSLPDLSVFQNLQVIRGRILHNGAYSLTLQGLGISWLGLRSLRELGSGLALIHHNTHLCFVHTVPWDQLFRNPHQALLHTANRPEDECVRRAQVTDKKIEPRGPTIKPCPPCKCPAPNLLGGPSVFIFPPKIKDVLMISLSPIVTCVVVDVSEDDPDVQISWFVNNVEVHTAQTQTHREDYNSTLRVVSALPIQHQDWMSGKEFKCKVNNKDLPAPIERTISKPKGSVRAPQVYVLPPPEEEMTKKQVTLTCMVTDFMPEDIYVEWTNNGKTELNYKNTEPVLDSDGSYFMYSKLRVEKKNWVERNSYSCSVVHEGLHNHHTTKSFSRTPGK
notes: also called P-HER2 variant; capture reagent of the pertuzumab ELISA
B4: Vorhyaluronidase Alfa (recombinant human hyaluronidase rHuPH20) (enzyme, UniProt P38567 36-482, looked up)
chain: LNFRAPPVIPNVPFLWAWNAPSEFCLGKFDEPLDMSLFSFIGSPRINATGQGVTIFYVDRLGYYPYIDSITGVTVNGGIPQKISLQDHLDKAKKDITFYMPVDNLGMAVIDWEEWRPTWARNWKPKDVYKNRSIELVQQQNVQLSLTEATEKAKQEFEKAGKDFLVETIKLGKLLRPNHLWGYYLFPDCYNHHYKKPGYNGSCFNVEIKRNDDLSWLWNESTALYPSIYLNTQQSPVAATLYVRNRVREAIRVSKIPDAKSPLPVFAYTRIVFTDQVLKFLSQDELVYTFGETVALGASGIVIWGTLSIMRSMKSCLLLDNYMETILNPYIINVTLAAKMCSQVLCQEQGVCIRKNWNSSDYLHLNPDNFAIQLEKGGKFTVRGKPTLEDLEQFSEKFYCSCYSTLSCKEKADVKDTDAVDVCIADGVCIDAFLKPPMETEEPQIFY
notes: Also the only protein in the two rHuPH20-containing formulation buffers tested as samples; also called rHuPH20-Containing FDC LD Formulation Buffer; rHuPH20-Containing FDC MD Formulation Buffer
B5: PEG-Filgrastim (other, UniProt P09919-2 31-204, looked up)
chain: TPLGPASSLPQSFLLKCLEQVRKIQGDGAALQEKLCATYKLCHPEELVLLGHSLGIPWAPLSSCPSQALQLAGCLSQLHSGLFLYQGLLQALEGISPELGPTLDTLQLDVADFATTIWQQMEELGMAPALQPTQGAMPAFASAFQRRAGGVLVASHLQSFLEVSYRVLRHLAQP
modifications: pegylated; site not stated
notes: Specificity control
B6: Filgrastim (other, UniProt P09919-2 31-204, looked up)
chain: TPLGPASSLPQSFLLKCLEQVRKIQGDGAALQEKLCATYKLCHPEELVLLGHSLGIPWAPLSSCPSQALQLAGCLSQLHSGLFLYQGLLQALEGISPELGPTLDTLQLDVADFATTIWQQMEELGMAPALQPTQGAMPAFASAFQRRAGGVLVASHLQSFLEVSYRVLRHLAQP
notes: Specificity control

The target of test [1] is B2. The test is described as follows: trastuzumab ELISA specificity test; sample Pertuzumab IV. A general note: An ELISA detects its analyte on a solid surface through an enzyme-linked reagent.
Test [2] concerns the target B5. The test is described as follows: trastuzumab ELISA specificity test.
The target in test [3] is B6. In words: trastuzumab ELISA specificity test.
Test [4] has as its target B4. The test is described as follows: trastuzumab ELISA specificity test; sample rHuPH20-Containing FDC LD Formulation Buffer.
Test [5] concerns the target B5. The test is described as follows: pertuzumab ELISA specificity test.
The target in test [6] is B6. The test is described as follows: pertuzumab ELISA specificity test.
The target of test [7] is B4. In words: pertuzumab ELISA specificity test; sample Vorhyaluronidase Alfa.
In test [8] the target is B3. The test is described as follows: pertuzumab ELISA specificity test, highest assay concentration, duplicate, OD(405 nm)-OD(490 nm).
The target of test [9] is B2. In words: trastuzumab ELISA specificity test, highest assay concentration, duplicate, OD(405 nm)-OD(490 nm).

B1: Pertuzumab (antibody, human IgG1, kappa, V domains shown)
VH: EVQLVESGGGLVQPGGSLRLSCAASGFTFTDYTMDWVRQAPGKGLEWVADVNPNSGGSIYNQRFKGRFTLSVDRSKNTLYLQMNSLRAEDTAVYYCARNLGPSFYFDYWGQGTLVTVSS
VL: DIQMTQSPSSLSASVGDRVTITCKASQDVSIGVAWYQQKPGKAPKLLIYSASYRYTGVPSRFSGSGSGTDFTLTISSLQPEDFATYYCQQYYIYPYTFGQGTKVEIKR
notes: also called rhuMAb 2C4; Pertuzumab IV
For B1, the binding result in test [1] is “no binding”.

With B2, the binding result (in the test with PEG-Filgrastim [2]; with Filgrastim [3]; in [4]) was “no binding” in each case.

In the case of B3, the binding result (in the test with PEG-Filgrastim [5]; with Filgrastim [6]; in test [7]) was “no binding” each time.

Turning to B4, the “OD Mean of Replicates” value was found to be 0.07 OD in [8] and 0.03 OD in test [9].

With B5, the “OD Mean of Replicates” value in test [8] was found to be 0.07 OD; in test [9] it was 0.03 OD.

With B6, the “OD Mean of Replicates” value in test [8] was 0.08 OD; in test [9], 0.04 OD.
